Experimental data as given in US20260028409A1 (Bristol-Myers Squibb, published 2026).

Columns and labels:
[1] = target: T1, human C-C Motif Chemokine Receptor 8 (hCCR8) (human, UniProt P51685 1-355); assay: % receptor occupancy against 4A19 concentration, flow cytometry on CCR8^+ Tregs in healthy donor whole blood; one of the two RO formats (direct/total or indirect/total)
T1 construct: also called human CCR8
Protocol: (§1) A head-to-head comparison of the two distinct RO assay formats was performed. Whole blood samples (180 μl) were pre-treated with various concentrations of the therapeutic mAb, mAb 4A19 (WO 2021/194942), mimicking different 4A19 dose treatment levels in subjects in the dose escalation arm of a Phase I clinical study (NCT04895709), and pre-incubated for 1 h at 37° C. Aliquots of the treated samples were transferred to 4° C. for periods of 24, 48 and 72h for specimen stability experiments.
(§2) After pre-incubation, tubes containing background samples were treated with a saturating concentration ([…]) of mAb 4A19, while other tubes (containing free or bound or FMO [fluorescence minus one] samples) were treated with PBS (equal volume as mAb 4A19) for 30 min at room temperature (RT). […]

[2] = target: T1, human C-C Motif Chemokine Receptor 8 …; assay: cell-based or functional assay
[3] = target: T1, human C-C Motif Chemokine Receptor 8 …; assay: % receptor occupancy against 4A19 concentration, flow cytometry on CCR8^+ Tregs in healthy donor whole blood; the other of the two RO formats (direct/total or indirect/total)
Protocol: as §1, §2

[4] = target: T1, human C-C Motif Chemokine Receptor 8 …; assay: FACS on hCCR8-overexpressing Raji cells, fluorescent secondary Ab
Protocol: Four of the 6 mAbs bound to the hCCR8-expressing cells with an EC₅₀ below 1 nM (FIG. 2A; see Table 1) whereas no nonspecific binding was observed on the parental Raji cells (FIG. 2B).
FACS was used to evaluate the binding specificity of Abs binding to CCR8. […] Unbound dye was washed away and cells were plated into 96-well round bottom plates at a concentration of 5×10⁵ cells per well in FACS staining buffer (PBS w/o Ca/Mg, 2 mM EDTA, 0.2% BSA). Serial dilutions of mAbs that bind to an epitope other than an N-terminal epitope of CCR8 were added, starting at a concentration of 20 nM, and incubated on ice for 30 min. Unbound Abs were washed off and a detection secondary Ab was added and incubated for 30 min on ice. Additional washes were performed and Ab binding affinities were determined by measuring the fluorescence intensities of the secondary Abs on a LSRFortessa X-20 cytometer (BD Biosciences).

[5] = target: T2, BSA-conjugated peptide corresponding to the N-terminal 35 amino acid residues of hCCR8 (human, two sulfated tyrosine residues (positions not stated for this peptide); conjugated to bovine serum albumin (BSA)); assay: ELISA, hybridoma supernatant on plate-coated BSA-conjugated sulfated N-terminal peptide (2 ug/ml)
T2 construct: Coated at 2 ug/ml on ELISA plates; also called BSA-conjugated CCR8 N-terminal peptide; sulfated N-terminal peptide of CCR8 conjugated to BSA
Protocol: To broadly characterize the epitopes of confirmed CCR8-specific Abs, hybridoma culture supernatants were screened by ELISA to measure binding to hCCR8 N-terminal peptides. Briefly, a BSA-conjugated peptide corresponding to the N-terminal 35 amino acid residues of hCCR8 (SEQ ID NO: 74; 2 μg/ml) representing the properly sulfated hCCR8 N-terminus was coated onto high-binding 96-well plates (Corning, Corning, NY) overnight at 4° C. Plates were blocked with BSA and washed, then 100 μl of culture supernatant were added for 30-60 min on a plate shaker. After washing, an appropriate anti-Fc secondary Ab conjugated to horseradish peroxidase (HRP) was added and left for 30-60 min. The plates were developed with ABTS or HRP substrate (SurModics, Eden Prairie, MN), and absorbance was measured at 405 or 650 nm on a Sunrise microplate reader (TECAN; Mannedorf, Switzerland).

T1 sequence (P51685 whole entry): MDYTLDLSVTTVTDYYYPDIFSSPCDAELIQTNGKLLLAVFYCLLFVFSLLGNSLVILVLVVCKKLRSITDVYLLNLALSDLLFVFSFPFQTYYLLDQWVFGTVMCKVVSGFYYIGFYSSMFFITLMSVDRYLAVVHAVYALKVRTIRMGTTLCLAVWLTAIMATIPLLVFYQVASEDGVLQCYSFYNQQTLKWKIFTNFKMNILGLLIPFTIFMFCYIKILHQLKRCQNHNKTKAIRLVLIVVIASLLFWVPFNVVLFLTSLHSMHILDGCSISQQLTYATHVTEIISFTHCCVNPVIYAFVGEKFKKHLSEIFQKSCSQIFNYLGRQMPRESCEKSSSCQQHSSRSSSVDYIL
T2 sequence (peptide, as listed by the source): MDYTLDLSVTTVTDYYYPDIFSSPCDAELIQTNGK

B1: mAb 4A19 (antibody, human IgG1, kappa, V domains shown)
VH: QVQLVQSGAEVKKPGASVKVSCKASGYTFTDSEMHWVRQATGQGLEWMGAIQPETGGTAYNQKFKARVTMTRDTSISTAYMELSSLRSEDTAVYYCARRRRNFDYWGQGTLVTVSS
VL: DIVMTQTPLSLSVTPGQPASISCRSSQSLFHSSGNTYLHWYLQKPGQPPQLLIYKVSNRFSGVPDRFSGSGSGTDFTLKISRVEAEDVGVYYCSQSTHVPFTFGQGTKLEIKR
notes: Therapeutic anti-hCCR8 mAb of WO 2021/194942; also called therapeutic anti-CCR8 mAb 4A19; A419
EC50 [1]: 0.022 nM
Maximum Depletion (%) of CCR8^+ Tregs Relative to KLH Isotype Control; Endometrial cancer [2]: 69%
Maximum Depletion (%) of CCR8^+ Tregs Relative to KLH Isotype Control; Head and neck squamous cell carcinoma [2]: 25%
EC50 [3]: 0.023 nM

B2: 21C17 mIgG2a (antibody, V domains shown)
VH: VVQLQQSGPVLVKPGASVKMSCAASGYTFTDNYINWVKQRHGKSLEWIGVINPYNGLTAYDQNFKGKATLTVDKSSSTAYMALNSLTSEASAVYYCARRYGGTPVRYFDVWGTGTTVTVSS
VL: DVVLTQTPLTLSVTIGQPASISCKSSQSLLDSSGKTYLNWLLQRPGQSPKRLIYLVSKLDSGVPDRFSGSGSGTDFTLKFSRVEAEDLGVYYCWQATHFPWSFGGGSKLEVKR
notes: Used unlabeled or conjugated to BV421; also called mAb 21C17; 21C17-mG2a
EC50 [4]: 0.0807 nM
binding result [5]: no binding

B3: 22B13 mIgG2a (antibody, V domains shown)
VH: VVQLQQSGPVLVKPGASVKMSCAASGYTFTDNYINWVKQRHGKSLEWIGVINPYNGLTAYDQNFKGKATLTVDKSSSTAYMALNSLTSEASAVYYCARRYGGTPVRYFDVWGTGTTVTVSS
VL: DIQMTQTASSLSASLGARVTISCRASQDISNYLNWYQQKPDGTFELLIYYTSRLHSGVPSRFSGSGSGTDYSLTITNLEQEDIATYFCQQGETLPWTFGGGTKLEIKR
notes: also called 22B13-mG2a
EC50 [4]: 0.0815 nM
binding result [5]: no binding

B4: 23A14 hIgG1 (antibody, V domains shown)
VH: QVQLVESGGGVVQPGRSLRLSCAVSGLTFSSYAMHWVRQAPGKGLEWVAVISYDGNKKYNADSVKGRFTISRDNSKNTLYLQMNSLRAEDTAVYYCARAEGKGDYWGQGTLVTVSS
VL: EIVLTQSPATLSLSPGERATLSCRASQSVSSYLVWYQQKPGQAPRLLIYDASNRATGIPARFSGSGSGTDFTLTISSLEPEDFAVYYCQQRSNWPRTFGQGTKVEIKR
notes: Tested as hIgG1; also called 23A14-hG1
EC50 [4]: 0.112 nM
binding result [5]: no binding
